From patent US10941182 (Amgen, dated 2021)
Starred links: 1 amine or outer side, 2 acyl side, 3 side chain; linkers in the order of their positions; H or OH if unused. Non-standard residues stand in square brackets, D forms with d. *: point of attachment. dBip = N[C@H](Cc1ccc(-c2ccccc2)cc1)C(=O)O; Oic = O=C(O)[C@@H]1C[C@@H]2CCCC[C@@H]2N1; dPhe(4-Cl) = N[C@H](Cc1ccc(Cl)cc1)C(=O)O; Phe(4-I) = N[C@@H](Cc1ccc(I)cc1)C(=O)O; γGlu = O=C(O)[C@H](CCC(=O)[*:2])N[*:1]; d1Nal = N[C@H](Cc1cccc2ccccc12)C(=O)O; Tridecanoyl = CCCCCCCCCCCCC(=O)*; hArg = N=C(N)NCCCC[C@H](N)C(=O)O; NMeL = CN[C@@H](CC(C)C)C(=O)O; Tle = CC(C)(C)[C@H](N)C(=O)O; AEEA = NCCOCCOCC(=O)O; BLeu = β-leucine; βAla = NCCC(=O)O

T1: human APJ receptor (human, UniProt P35414 1-380)
T1 sequence (looked up): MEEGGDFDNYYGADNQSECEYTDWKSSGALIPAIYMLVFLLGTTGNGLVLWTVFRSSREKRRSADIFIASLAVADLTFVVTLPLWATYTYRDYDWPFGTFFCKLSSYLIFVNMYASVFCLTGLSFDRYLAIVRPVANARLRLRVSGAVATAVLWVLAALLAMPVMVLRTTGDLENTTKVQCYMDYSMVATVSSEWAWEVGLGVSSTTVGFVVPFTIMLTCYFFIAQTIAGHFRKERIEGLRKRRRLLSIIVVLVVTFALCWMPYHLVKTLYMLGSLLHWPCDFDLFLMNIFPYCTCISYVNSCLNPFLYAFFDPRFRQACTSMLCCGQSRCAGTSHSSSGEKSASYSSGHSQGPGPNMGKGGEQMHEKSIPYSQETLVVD

T2: rat APJ receptor (rat, UniProt Q9JHG3 1-377)
T2 sequence (looked up): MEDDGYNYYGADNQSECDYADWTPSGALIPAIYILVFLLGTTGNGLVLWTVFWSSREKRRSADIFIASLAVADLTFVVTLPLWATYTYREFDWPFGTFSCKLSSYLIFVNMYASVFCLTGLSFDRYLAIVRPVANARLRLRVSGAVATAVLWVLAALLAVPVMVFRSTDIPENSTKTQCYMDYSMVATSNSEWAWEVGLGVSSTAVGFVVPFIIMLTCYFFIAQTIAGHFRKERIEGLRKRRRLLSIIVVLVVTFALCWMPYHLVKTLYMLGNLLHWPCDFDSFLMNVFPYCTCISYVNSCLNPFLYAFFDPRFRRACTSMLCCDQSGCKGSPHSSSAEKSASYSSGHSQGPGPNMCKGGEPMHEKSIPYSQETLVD


Tests used:
human APJ receptor = target: T1, human APJ receptor; assay: cell-based or functional assay
rat APJ receptor = target: T2, rat APJ receptor; assay: cell-based or functional assay

| Binder | EC50 Human APJ Receptor (human APJ receptor) [nM] | EC50 Rat APJ Receptor (rat APJ receptor) [nM] |
| --- | --- | --- |
| Tridecanoyl-[γGlu][AEEA][AEEA][dR]Q[hArg]P[dR][NMeL]SHKG[Oic][Phe(4-I)][dBip]-OH (SMILES CCCCCCCCCCCCC(=O)N[C@@H](CCC(=O)NCCOCCOCC(=O)NCCOCCOCC(=O)N[C@H](CCCNC(=N)N)C(=O)N[C@@H](CCC(N)=O)C(=O)N[C@@H](CCCCNC(=N)N)C(=O)N1CCC[C@H]1C(=O)N[C@H](CCCNC(=N)N)C(=O)N(C)[C@@H](CC(C)C)C(=O)N[C@@H](CO)C(=O)N[C@@H](Cc1c[nH]cn1)C(=O)N[C@@H](CCCCN)C(=O)NCC(=O)N1[C@H](C(=O)N[C@@H](Cc2ccc(I)cc2)C(=O)N[C@H](Cc2ccc(-c3ccccc3)cc2)C(=O)O)C[C@@H]2CCCC[C@@H]21)C(=O)O) [apelin polypeptide SEQ ID NO: 173] | 1.66 | 13.7 |
| Tridecanoyl-[γGlu][AEEA][AEEA][dR]Q[hArg]P[dR][NMeL]SHKG[Oic][Phe(4-I)]P[dPhe(4-Cl)]-OH (SMILES CCCCCCCCCCCCC(=O)N[C@@H](CCC(=O)NCCOCCOCC(=O)NCCOCCOCC(=O)N[C@H](CCCNC(=N)N)C(=O)N[C@@H](CCC(N)=O)C(=O)N[C@@H](CCCCNC(=N)N)C(=O)N1CCC[C@H]1C(=O)N[C@H](CCCNC(=N)N)C(=O)N(C)[C@@H](CC(C)C)C(=O)N[C@@H](CO)C(=O)N[C@@H](Cc1c[nH]cn1)C(=O)N[C@@H](CCCCN)C(=O)NCC(=O)N1[C@H](C(=O)N[C@@H](Cc2ccc(I)cc2)C(=O)N2CCC[C@H]2C(=O)N[C@H](Cc2ccc(Cl)cc2)C(=O)O)C[C@@H]2CCCC[C@@H]21)C(=O)O) [apelin polypeptide SEQ ID NO: 154] | 4.54 | 40.5 |
| Tridecanoyl-[γGlu][AEEA][AEEA][dR]Q[hArg]P[dR][NMeL]SHKG[Oic][Phe(4-I)]P[d1Nal]-OH (SMILES CCCCCCCCCCCCC(=O)N[C@@H](CCC(=O)NCCOCCOCC(=O)NCCOCCOCC(=O)N[C@H](CCCNC(=N)N)C(=O)N[C@@H](CCC(N)=O)C(=O)N[C@@H](CCCCNC(=N)N)C(=O)N1CCC[C@H]1C(=O)N[C@H](CCCNC(=N)N)C(=O)N(C)[C@@H](CC(C)C)C(=O)N[C@@H](CO)C(=O)N[C@@H](Cc1c[nH]cn1)C(=O)N[C@@H](CCCCN)C(=O)NCC(=O)N1[C@H](C(=O)N[C@@H](Cc2ccc(I)cc2)C(=O)N2CCC[C@H]2C(=O)N[C@H](Cc2cccc3ccccc23)C(=O)O)C[C@@H]2CCCC[C@@H]21)C(=O)O) [apelin polypeptide SEQ ID NO: 155] | 8.62 | 49.6 |
| Tridecanoyl-[γGlu][AEEA][AEEA][hArg][dQ][hArg]P[dR][BLeu]SHKG[Oic][Phe(4-I)]P[dBip]-OH [apelin polypeptide SEQ ID NO: 180] | 10 | 27.3 |
| Ac-[hArg][dR]Q[hArg]P[dR][NMeL]SHKG[Oic][Phe(4-I)]P[dBip]-OH (SMILES CC(=O)N[C@@H](CCCCNC(=N)N)C(=O)N[C@H](CCCNC(=N)N)C(=O)N[C@@H](CCC(N)=O)C(=O)N[C@@H](CCCCNC(=N)N)C(=O)N1CCC[C@H]1C(=O)N[C@H](CCCNC(=N)N)C(=O)N(C)[C@@H](CC(C)C)C(=O)N[C@@H](CO)C(=O)N[C@@H](Cc1c[nH]cn1)C(=O)N[C@@H](CCCCN)C(=O)NCC(=O)N1[C@H](C(=O)N[C@@H](Cc2ccc(I)cc2)C(=O)N2CCC[C@H]2C(=O)N[C@H](Cc2ccc(-c3ccccc3)cc2)C(=O)O)C[C@@H]2CCCC[C@@H]21) [apelin polypeptide SEQ ID NO: 16] | 0.375 | 0.729 |
| Tridecanoyl-[γGlu][AEEA][AEEA][hArg][dQ][hArg]P[dR][NMeL]SHKG[Oic][Phe(4-I)][dBip]-OH (SMILES CCCCCCCCCCCCC(=O)N[C@@H](CCC(=O)NCCOCCOCC(=O)NCCOCCOCC(=O)N[C@@H](CCCCNC(=N)N)C(=O)N[C@H](CCC(N)=O)C(=O)N[C@@H](CCCCNC(=N)N)C(=O)N1CCC[C@H]1C(=O)N[C@H](CCCNC(=N)N)C(=O)N(C)[C@@H](CC(C)C)C(=O)N[C@@H](CO)C(=O)N[C@@H](Cc1c[nH]cn1)C(=O)N[C@@H](CCCCN)C(=O)NCC(=O)N1[C@H](C(=O)N[C@@H](Cc2ccc(I)cc2)C(=O)N[C@H](Cc2ccc(-c3ccccc3)cc2)C(=O)O)C[C@@H]2CCCC[C@@H]21)C(=O)O) [apelin polypeptide SEQ ID NO: 174] | 3.6 | 16.5 |
| Tridecanoyl-[γGlu][AEEA][AEEA][hArg]Q[dR]P[dR][NMeL]SHKG[Oic][Phe(4-I)][dBip]-OH (SMILES CCCCCCCCCCCCC(=O)N[C@@H](CCC(=O)NCCOCCOCC(=O)NCCOCCOCC(=O)N[C@@H](CCCCNC(=N)N)C(=O)N[C@@H](CCC(N)=O)C(=O)N[C@H](CCCNC(=N)N)C(=O)N1CCC[C@H]1C(=O)N[C@H](CCCNC(=N)N)C(=O)N(C)[C@@H](CC(C)C)C(=O)N[C@@H](CO)C(=O)N[C@@H](Cc1c[nH]cn1)C(=O)N[C@@H](CCCCN)C(=O)NCC(=O)N1[C@H](C(=O)N[C@@H](Cc2ccc(I)cc2)C(=O)N[C@H](Cc2ccc(-c3ccccc3)cc2)C(=O)O)C[C@@H]2CCCC[C@@H]21)C(=O)O) [apelin polypeptide SEQ ID NO: 175] | 1.32 | 8.54 |

Next, values leading:

| EC50 Human APJ Receptor (human APJ receptor) [nM] | EC50 Rat APJ Receptor (rat APJ receptor) [nM] | Binder |
| --- | --- | --- |
| 1.9 | 6.29 | Tridecanoyl-[γGlu][AEEA][AEEA]RQRP[dR][NMeL]SHKG[Oic][Phe(4-I)]P[dBip]-OH (SMILES CCCCCCCCCCCCC(=O)N[C@@H](CCC(=O)NCCOCCOCC(=O)NCCOCCOCC(=O)N[C@@H](CCCNC(=N)N)C(=O)N[C@@H](CCC(N)=O)C(=O)N[C@@H](CCCNC(=N)N)C(=O)N1CCC[C@H]1C(=O)N[C@H](CCCNC(=N)N)C(=O)N(C)[C@@H](CC(C)C)C(=O)N[C@@H](CO)C(=O)N[C@@H](Cc1c[nH]cn1)C(=O)N[C@@H](CCCCN)C(=O)NCC(=O)N1[C@H](C(=O)N[C@@H](Cc2ccc(I)cc2)C(=O)N2CCC[C@H]2C(=O)N[C@H](Cc2ccc(-c3ccccc3)cc2)C(=O)O)C[C@@H]2CCCC[C@@H]21)C(=O)O) [apelin polypeptide SEQ ID NO: 211] |
| 8.48 | 32.4 | Tridecanoyl-[γGlu][AEEA][AEEA][hArg][dQ][hArg]P[dR][NMeL]SAKG[Oic][Phe(4-I)]P[dBip]-OH (SMILES CCCCCCCCCCCCC(=O)N[C@@H](CCC(=O)NCCOCCOCC(=O)NCCOCCOCC(=O)N[C@@H](CCCCNC(=N)N)C(=O)N[C@H](CCC(N)=O)C(=O)N[C@@H](CCCCNC(=N)N)C(=O)N1CCC[C@H]1C(=O)N[C@H](CCCNC(=N)N)C(=O)N(C)[C@@H](CC(C)C)C(=O)N[C@@H](CO)C(=O)N[C@@H](C)C(=O)N[C@@H](CCCCN)C(=O)NCC(=O)N1[C@H](C(=O)N[C@@H](Cc2ccc(I)cc2)C(=O)N2CCC[C@H]2C(=O)N[C@H](Cc2ccc(-c3ccccc3)cc2)C(=O)O)C[C@@H]2CCCC[C@@H]21)C(=O)O) [apelin polypeptide SEQ ID NO: 199] |
| 49.4 | 182 | Tridecanoyl-[γGlu][AEEA][AEEA][hArg][dQ][hArg]P[dR][NMeL]S[Tle]KG[Oic][Phe(4-I)]P[dBip]-OH (SMILES CCCCCCCCCCCCC(=O)N[C@@H](CCC(=O)NCCOCCOCC(=O)NCCOCCOCC(=O)N[C@@H](CCCCNC(=N)N)C(=O)N[C@H](CCC(N)=O)C(=O)N[C@@H](CCCCNC(=N)N)C(=O)N1CCC[C@H]1C(=O)N[C@H](CCCNC(=N)N)C(=O)N(C)[C@@H](CC(C)C)C(=O)N[C@@H](CO)C(=O)N[C@H](C(=O)N[C@@H](CCCCN)C(=O)NCC(=O)N1[C@H](C(=O)N[C@@H](Cc2ccc(I)cc2)C(=O)N2CCC[C@H]2C(=O)N[C@H](Cc2ccc(-c3ccccc3)cc2)C(=O)O)C[C@@H]2CCCC[C@@H]21)C(C)(C)C)C(=O)O) [apelin polypeptide SEQ ID NO: 201] |
| 28.9 | 104 | Tridecanoyl-[γGlu][AEEA][AEEA][hArg][dQ][hArg]P[dR][NMeL][βAla]HKG[Oic][Phe(4-I)]P[dBip]-OH (SMILES CCCCCCCCCCCCC(=O)N[C@@H](CCC(=O)NCCOCCOCC(=O)NCCOCCOCC(=O)N[C@@H](CCCCNC(=N)N)C(=O)N[C@H](CCC(N)=O)C(=O)N[C@@H](CCCCNC(=N)N)C(=O)N1CCC[C@H]1C(=O)N[C@H](CCCNC(=N)N)C(=O)N(C)[C@@H](CC(C)C)C(=O)NCCC(=O)N[C@@H](Cc1c[nH]cn1)C(=O)N[C@@H](CCCCN)C(=O)NCC(=O)N1[C@H](C(=O)N[C@@H](Cc2ccc(I)cc2)C(=O)N2CCC[C@H]2C(=O)N[C@H](Cc2ccc(-c3ccccc3)cc2)C(=O)O)C[C@@H]2CCCC[C@@H]21)C(=O)O) [apelin polypeptide SEQ ID NO: 208] |
